{
  "source": "patent US8444970B2",
  "about": "“Compositions and methods for treating ocular diseases and conditions” (Lpath, Inc., priority 2006, dated 2013)",
  "molecules": {"B1": {"name": "LT1002: murine anti-S1P monoclonal antibody, IgG1 kappa, hybridoma clone 306D326.26 (antibody, listed as Mus sp., V domains shown)", "VH": "QAHLQQSDAELVKPGASVKISCKVSGFIFIDHTIHWMKQRPEQGLEWIGCISPRHDITKYNEMFRGKATLTADKSSTTAYIQVNSLTFEDSAVYFCARGGFYGSTIWFDFWGQGTTLTVS", "VL": "ETTVTQSPASLSMAIGEKVTIRCITTTDIDDDMNWFQQKPGEPPNLLISEGNILRPGVPSRFSSSGYGTDFLFTIENMLSEDVADYYCLQSDNLPFTFGSGTKLEIK"}},
  "key": {"[1]": {"assay": "Competitive ELISA for specificity / cross-reactivity to bioactive lipids", "type": "binding", "conditions": "for recognition of ceramide-1-phosphate (C1P): competitor lipid C1P; for cross-reactivity to lysophosphatidic acid (LPA): competitor lipid LPA; for cross-reactivity with sphingosylphosphorylcholine (SPC): competitor lipid SPC", "method": "Screening of serum and cell supernatant for S1P-specific antibodies was by direct ELISA using a thiolated S1P analog as the antigen. A standard ELISA was performed, as described below, except that 50 ul of sample (serum or cell supernatant) was diluted with an equal volume of PBS/0.1% Tween-20 (PBST) during the primary incubation. ELISAs were performed in 96-well high binding ELISA plates (Costar) coated with 0.1 μg of chemically-synthesized thiolated-S1P conjugated to BSA in binding buffer (33.6 mM Na2CO3, 100 mM NaHCO3; pH 9.5). The thiolated-S1P-BSA was incubated at 37° C. for 1 hr. at 4° C. overnight in the ELISA plate wells. The plates were then washed four times with PBS (137 mM NaCl, 2.68 mM KCl, 10.14 mM Na2HPO4, 1.76 mM KH2PO4; pH 7.4) and blocked with PBST for 1 hr. at room temperature. For the primary incubation step, 75 uL of the sample (containing the S1P to be measured), was incubated with 25 uL of 0.1 ug/mL anti-S1P mAb diluted in PBST and added to a well of the ELISA plate. Each sample was performed in triplicate wells. Following a 1 hr. incubation at room temperature, the ELISA plates were washed four times with PBS and incubated with 100 ul per well of 0.1 ug/mL HRP goat anti-mouse secondary (Jackson Immunoresearch) for 1 hr. at room temperature. Plates were then washed four times with PBS and exposed to tetramethylbenzidine (Sigma) for 1-10 minutes. The detection reaction was stopped by the addition of an equal volume of 1M H2SO4. Optical density of the samples was determined by measurement at 450 nm using an EL-X-800 ELISA plate reader (Bio-Tech).\nFor cross reactivity, a competitive ELISA was performed as described above, except for the following alterations. The primary incubation consisted of the competitor (S1P, SPH, LPA, etc.) and a biotin-conjugated anti-S1P mAb. Biotinylation of the purified monoclonal antibody was performed using the EZ-Link Sulfo-NHS-Biotinylation kit (Pierce). Biotin incorporation was determined as per kit protocol and ranged from 7 to 11 biotin molecules per antibody. The competitor was prepared as follows: lipid stocks were sonicated and dried under argon before reconstitution in DPBS/BSA [1 mg/ml fatty acid free BSA (Calbiochem) in DPBS (Invitrogen 14040-133)]. Purified anti-S1P mAb was diluted as necessary in PBS/0.5% Triton X-100. Competitor and antibody solutions were mixed together so to generate 3 parts competitor to 1 part antibody. A HRP-conjugated streptavidin secondary antibody (Jackson Immunoresearch) was used to generate signal.\ni. Specificity. The humanized variants were tested for specificity in a competitive ELISA assay (FIG. 1) against S1P and several other biolipids. This assay has the added benefit to allow for epitope mapping."}, "[2]": {"system": "neovascularization of VEGF- or bFGF-containing Matrigel plugs", "assay": "In vivo Matrigel plug assay, bFGF- or VEGF-supplemented plugs, neovascularization", "design": "species or system mouse", "conditions": "25 mg/kg i.p. every 48 hrs, 10 days", "method": "Endogenous S1P from the blood and surrounding tissue could supply a wound with pro-angiogenic stimuli. The ability of SPHINGOMAB to reduce endogenous S1P in a wound was investigated. Optimally stimulated plugs (Matrigel supplemented with 0.5 μg/mL bFGF or […] VEGF) were implanted into mice. Mice received i.p. injections of 25 mg/kg SPHINGOMAB or saline every 48 hrs starting 1 day prior to Matrigel implantation. Each treatment group (Matrigel, Matrigel plus GF or Matrigel plus GF and administered SPHINGOMAB) consisted of a minimum of 6 mice. After 10 days, the mice were treated with heparin, injected with Isolectin B4-FITC, the plugs excised, embedded in OCT freezing medium and sectioned."}, "[3]": {"system": "cardiac fibroblasts from transgenic mice expressing collagen-GFP", "assay": "S1P-stimulated collagen gene expression (collagen-GFP reporter)", "type": "cell-based, mouse", "conditions": "1 ug/mL antibody, 12-24 hr", "method": "FIG. 7. […] See Example 7, below, for experimental details. […] In these experiments, fibroblasts were serum-starved and then treated with 0, 0.1, 0.5, or 1 μM S1P+/−1 μg/mL SPHINGOMAB for 12-24 hr. […] SPHINGOMAB neutralized each of these S1P effects. SPHINGOMAB reduced perivascular fibrosis in vivo in a murine model of a permanent myocardial infarction (E).\nS1P makes profound contributions to wound healing by activating fibroblast migration, proliferation and collagen production; SPHINGOMAB neutralizes these effects. Several studies using multiple types of fibroblasts confirm S1P's ability to promote wound healing: 1) S1P increased Swiss-3T3 fibroblast proliferation as measured by ^3H-thymidine incorporation using standard methods (FIG. 7A); 2) S1P promoted the migration of cardiac fibroblasts in a standard scratch wound healing assay. […] In each of these assays, SPHINGOMAB neutralized S1P's. It is anticipated that ocular fibroblasts would respond similarly to S1P and SPHINGOMAB."}, "[4]": {"system": "ovarian cancer (OVCAR3) cells", "assay": "S1P-induced IL-8 release from ovarian cancer cells", "type": "cell-based", "conditions": "1 uM S1P, 22 hours", "method": "FIG. 12. FIG. 12 has two panels, A and B, that show data from in vitro cell assays performed using several humanized monoclonal antibody variants. […] As described in Example 16, below, SKOV3 cells were treated for 48 hr. with 500 nM Taxol (Tax) in the presence or absence of 500 nM S1P with huMAbHCLC3 (309), huMAbHCLC5 (308), muMAb S1P (muMAb), or non-specific IgG1 (NS) at a concentration of 1 μg/mL. Values represent means±SEM (n=3) with triplicates run for each data point. “NT” means not treated, and “Veh” stans for vehicle only. […] In the experiments described in detail in Example 16, below, 100,000 OVCAR3 cells/well were starved overnight and 1 uM S1P was added to the culture media alone or pre-incubated with 1 ug/ml of non-specific antibody (NS), pATH201+pATH309 (LC3), pATH201+pATH308 (LC5), pATH207+pATH309 (cysLC3), pATH207+pATH308 (cysLC5), and 0.1 ug/ml (M0.1), 1 ug/ml (M1) or 10 ug/ml (M10) of anti-S1P murine antibody. After 22 hours of incubation, cell supernatants were collected and IL-8 secretion was measured by ELISA using an R&D system Quantikine human CXCL8/IL-8 kit. In the figure “NT” refers to non-treated cells.\nIn parallel, all the variants were tested for their effects on S1P-induced cytokine release from cancer cells. S1P is known to elicit significant release of IL-8 into the cell-conditioned media from cancer cells."}},
  "data": [
    {"molecule": "B1", "values": [
      {"measurement": "Specificity (ELISA)", "setting": "[1]; In vitro activity, Table 7", "value": "High"},
      {"measurement": "recognition of ceramide-1-phosphate (C1P)", "setting": "[1]; listed as SPHINGOMAB", "value": "did not recognize"},
      {"measurement": "recognition of ceramide-1-phosphate (C1P)", "setting": "[1]; listed as anti-S1P mAb", "value": "no antibody binding was observed"},
      {"measurement": "cross-reactivity with dihydrosphingosine-1-phosphate (DH-S1P)", "setting": "[1]; competitor lipid DH-S1P", "value": "did cross react"},
      {"measurement": "recognition of dihydrosphingosine (DH-SPH)", "setting": "[1]; competitor lipid DH-SPH", "value": "did not recognize"},
      {"measurement": "cross-reactivity to lysophosphatidic acid (LPA)", "setting": "[1]; listed as SPHINGOMAB", "value": "no cross-reactivity"},
      {"measurement": "cross-reactivity to lysophosphatidic acid (LPA)", "setting": "[1]; listed as anti-S1P mAb", "value": "no binding"},
      {"measurement": "recognition of phosphatidyl ethanolamine (PE)", "setting": "[1]; competitor lipid PE", "value": "did not recognize"},
      {"measurement": "recognition of phosphatidyl serine (PS)", "setting": "[1]; competitor lipid PS", "value": "did not recognize"},
      {"measurement": "recognition of sphingomyelin (SM)", "setting": "[1]; competitor lipid SM", "value": "did not recognize"},
      {"measurement": "cross-reactivity with sphingosylphosphorylcholine (SPC)", "setting": "[1]; listed as SPHINGOMAB", "value": "to a lesser extent"},
      {"measurement": "cross-reactivity with sphingosylphosphorylcholine (SPC)", "setting": "[1]; listed as anti-S1P mAb", "value": "somewhat reduced"},
      {"measurement": "cross-reactivity to sphingosine (SPH)", "setting": "[1]; competitor lipid SPH", "value": "no cross-reactivity"},
      {"measurement": "decrease in neovascularization of VEGF-containing plugs vs saline-treated animals", "setting": "[2]", "value": 5, "unit": "fold"},
      {"measurement": "decrease in neovascularization of bFGF-containing plugs vs saline-treated animals", "setting": "[2]", "value": 8.5, "unit": "fold"},
      {"measurement": "S1P-promoted collagen expression", "setting": "[3]", "value": "neutralized"},
      {"measurement": "IL-8 release", "setting": "[4]", "value": "reduced IL-8 release"}
    ]}
  ]
}
